{
  "source": "patent US20130137628A1",
  "target": "ATP-binding cassette transporter A1 (ABCA1) on RAW 264.7 murine macrophage cells (murine) (UniProt P41233)",
  "sequence (P41233 whole entry)": "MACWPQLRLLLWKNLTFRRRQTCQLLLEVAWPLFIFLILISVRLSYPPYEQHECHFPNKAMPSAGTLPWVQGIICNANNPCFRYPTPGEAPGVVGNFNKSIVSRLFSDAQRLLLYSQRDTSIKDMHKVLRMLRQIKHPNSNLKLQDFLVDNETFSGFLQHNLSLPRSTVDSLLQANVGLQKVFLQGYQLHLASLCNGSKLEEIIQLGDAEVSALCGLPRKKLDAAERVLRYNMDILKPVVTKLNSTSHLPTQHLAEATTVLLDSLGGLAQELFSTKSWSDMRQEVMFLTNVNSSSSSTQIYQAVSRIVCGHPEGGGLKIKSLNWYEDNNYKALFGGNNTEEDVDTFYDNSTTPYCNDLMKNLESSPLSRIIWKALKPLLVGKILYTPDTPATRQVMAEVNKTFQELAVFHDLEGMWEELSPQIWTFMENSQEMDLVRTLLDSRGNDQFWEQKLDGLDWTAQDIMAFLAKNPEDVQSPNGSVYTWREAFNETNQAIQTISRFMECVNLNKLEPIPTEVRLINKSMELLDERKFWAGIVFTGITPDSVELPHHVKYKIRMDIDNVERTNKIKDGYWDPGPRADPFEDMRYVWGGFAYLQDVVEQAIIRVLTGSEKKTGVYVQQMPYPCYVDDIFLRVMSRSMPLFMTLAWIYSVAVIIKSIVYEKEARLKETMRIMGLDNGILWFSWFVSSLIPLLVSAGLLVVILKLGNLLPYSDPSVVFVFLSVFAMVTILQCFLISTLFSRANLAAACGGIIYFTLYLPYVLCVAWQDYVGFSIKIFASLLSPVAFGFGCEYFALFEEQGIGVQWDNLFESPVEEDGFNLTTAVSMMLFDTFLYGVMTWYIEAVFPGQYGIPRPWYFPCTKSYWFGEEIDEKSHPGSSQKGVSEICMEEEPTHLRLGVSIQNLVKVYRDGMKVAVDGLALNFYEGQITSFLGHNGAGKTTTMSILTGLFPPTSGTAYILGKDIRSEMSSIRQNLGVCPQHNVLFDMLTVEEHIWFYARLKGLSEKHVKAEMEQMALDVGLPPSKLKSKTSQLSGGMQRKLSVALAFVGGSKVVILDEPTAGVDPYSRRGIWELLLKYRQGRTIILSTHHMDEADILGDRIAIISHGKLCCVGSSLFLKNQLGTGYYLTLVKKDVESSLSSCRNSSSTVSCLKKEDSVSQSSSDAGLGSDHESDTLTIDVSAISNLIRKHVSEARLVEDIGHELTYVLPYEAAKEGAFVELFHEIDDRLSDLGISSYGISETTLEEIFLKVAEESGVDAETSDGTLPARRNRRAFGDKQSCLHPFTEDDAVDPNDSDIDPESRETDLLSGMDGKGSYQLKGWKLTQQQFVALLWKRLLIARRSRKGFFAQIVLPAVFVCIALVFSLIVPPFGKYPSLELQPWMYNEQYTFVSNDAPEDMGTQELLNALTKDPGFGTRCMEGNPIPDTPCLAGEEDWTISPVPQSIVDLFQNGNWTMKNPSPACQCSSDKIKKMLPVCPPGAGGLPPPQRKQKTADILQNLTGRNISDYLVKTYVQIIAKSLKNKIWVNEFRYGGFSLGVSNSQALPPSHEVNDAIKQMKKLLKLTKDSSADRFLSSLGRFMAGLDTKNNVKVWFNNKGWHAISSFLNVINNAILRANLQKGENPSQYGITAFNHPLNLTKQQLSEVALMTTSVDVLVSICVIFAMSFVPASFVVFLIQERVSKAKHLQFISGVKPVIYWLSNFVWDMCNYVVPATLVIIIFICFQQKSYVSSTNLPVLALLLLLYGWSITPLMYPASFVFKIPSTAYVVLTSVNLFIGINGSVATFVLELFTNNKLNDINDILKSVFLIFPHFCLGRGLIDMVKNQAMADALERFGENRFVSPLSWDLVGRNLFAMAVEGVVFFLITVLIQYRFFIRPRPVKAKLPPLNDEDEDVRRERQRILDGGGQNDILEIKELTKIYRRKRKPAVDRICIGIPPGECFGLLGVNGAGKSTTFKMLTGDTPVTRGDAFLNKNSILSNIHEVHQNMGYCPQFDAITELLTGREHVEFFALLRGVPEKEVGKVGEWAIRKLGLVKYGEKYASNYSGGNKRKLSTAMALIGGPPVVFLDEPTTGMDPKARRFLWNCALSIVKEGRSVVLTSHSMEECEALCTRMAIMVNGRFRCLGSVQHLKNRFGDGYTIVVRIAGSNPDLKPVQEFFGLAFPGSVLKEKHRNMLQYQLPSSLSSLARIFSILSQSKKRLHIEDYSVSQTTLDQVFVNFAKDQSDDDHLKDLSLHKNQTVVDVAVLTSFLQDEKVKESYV",
  "experiment": "cell-based or functional assay",
  "data": [
    {"substance": "recombinant wild type ApoA1 after MPO/HOCl-mediated oxidative damage (from UniProt P02647 25-267)", "values": [
      {"measurement": "ABCA-1-dependent cholesterol efflux ability (reduction upon MPO/HOCl-mediated oxidative damage), RAW 264.7 cells, [3H]-cholesterol", "value": "75 to 80", "unit": "%"}
    ]}
  ]
}
